Assay results from PMC6486548, “Structure, dynamics and roX2-lncRNA binding of tandem double-stranded RNA binding domains dsRBD1,2 of Drosophila helicase Maleless”.

Experiments:
MLE dsRBD1,2 [1] = target: T1, MLE dsRBD1,2 (UniProt P24785 1-257); assay: NMR titration; severe line broadening; Filter binding: 20 mM HEPES/NaOH pH 8.0, 150 mM NaCl, 5 mM MgCl2, on ice; ITC: 10 mM HEPES pH 8.0, 75 mM NaCl, 2.5 mM MgCl2, 1 mM b-mercaptoethanol, 20 C; NMR:; details: protein: recombinant, tags: N-terminal His6 removed by TEV
MLE dsRBD2 [2] = target: T2, MLE dsRBD2 (UniProt P24785 155-257); assay: ITC; n=0.70; Filter binding: 20 mM HEPES/NaOH pH 8.0, 150 mM NaCl, 5 mM MgCl2, on ice; ITC: 10 mM HEPES pH 8.0, 75 mM NaCl, 2.5 mM MgCl2, 1 mM b-mercaptoethanol, 20 C; NMR:; details: protein: recombinant; tags: N-terminal His6 removed by TEV; blunt, internal A-C mismatch and G-U pairs
MLE dsRBD1,2 [3] = target: T1, MLE dsRBD1,2; assay: ITC; n=0.84; Filter binding: 20 mM HEPES/NaOH pH 8.0, 150 mM NaCl, 5 mM MgCl2, on ice; ITC: 10 mM HEPES pH 8.0, 75 mM NaCl, 2.5 mM MgCl2, 1 mM b-mercaptoethanol, 20 C; NMR:; details: protein: recombinant; tags: N-terminal His6 removed by TEV; blunt, internal A-C mismatch and G-U pairs
MLE dsRBD1 = MLE dsRBD1 (UniProt P24785 1-84); assay: NMR titration; Filter binding: 20 mM HEPES/NaOH pH 8.0, 150 mM NaCl, 5 mM MgCl2, on ice; ITC: 10 mM HEPES pH 8.0, 75 mM NaCl, 2.5 mM MgCl2, 1 mM b-mercaptoethanol, 20 C; NMR:; details: protein: recombinant; tags: N-terminal His6 removed by TEV; blunt, internal A-C mismatch and G-U pairs
MLE dsRBD2 [4] = target: T2, MLE dsRBD2; assay: as above; details: protein: recombinant; tags: N-terminal His6 removed by TEV; blunt, internal A-C mismatch and G-U pairs
MLE dsRBD1 K53+54E = MLE dsRBD1 K53+54E (UniProt P24785 1-84, K53E;K54E); assay: NMR titration; 1.3x RNA; Filter binding: 20 mM HEPES/NaOH pH 8.0, 150 mM NaCl, 5 mM MgCl2, on ice; ITC: 10 mM HEPES pH 8.0, 75 mM NaCl, 2.5 mM MgCl2, 1 mM b-mercaptoethanol, 20 C; NMR:; details: protein: recombinant; tags: N-terminal His6 removed by TEV; blunt, internal A-C mismatch and G-U pairs
MLE dsRBD1 K53E = MLE dsRBD1 K53E (UniProt P24785 1-84, K53E); assay: as above; details: protein: recombinant; tags: N-terminal His6 removed by TEV; blunt, internal A-C mismatch and G-U pairs
MLE dsRBD1 K54E = MLE dsRBD1 K54E (UniProt P24785 1-84, K54E); assay: as above; details: protein: recombinant; tags: N-terminal His6 removed by TEV; blunt, internal A-C mismatch and G-U pairs
MLE dsRBD2 [5] = target: T2, MLE dsRBD2; assay: ITC; n=0.93; Filter binding: 20 mM HEPES/NaOH pH 8.0, 150 mM NaCl, 5 mM MgCl2, on ice; ITC: 10 mM HEPES pH 8.0, 75 mM NaCl, 2.5 mM MgCl2, 1 mM b-mercaptoethanol, 20 C; NMR:; details: protein: recombinant; tags: N-terminal His6 removed by TEV; hairpin
MLE dsRBD1,2 [6] = target: T1, MLE dsRBD1,2; assay: ITC; n=0.95; Filter binding: 20 mM HEPES/NaOH pH 8.0, 150 mM NaCl, 5 mM MgCl2, on ice; ITC: 10 mM HEPES pH 8.0, 75 mM NaCl, 2.5 mM MgCl2, 1 mM b-mercaptoethanol, 20 C; NMR:; details: protein: recombinant; tags: N-terminal His6 removed by TEV; hairpin
MLE dsRBD1,2 [7] = target: T1, MLE dsRBD1,2; assay: filter binding; 5 mM Mg2+; Filter binding: 20 mM HEPES/NaOH pH 8.0, 150 mM NaCl, 5 mM MgCl2, on ice; ITC: 10 mM HEPES pH 8.0, 75 mM NaCl, 2.5 mM MgCl2, 1 mM b-mercaptoethanol, 20 C; NMR:; details: protein: recombinant; tags: N-terminal His6 removed by TEV; hairpin
MLE dsRBD2 [8] = target: T2, MLE dsRBD2; assay: as above; details: protein: recombinant; tags: N-terminal His6 removed by TEV; hairpin
[9] = target: MLE dsRBD1,2 linker deletion (UniProt P24785 1-257, del85-140); assay: filter binding; affinity similar to dsRBD1,2; Filter binding: 20 mM HEPES/NaOH pH 8.0, 150 mM NaCl, 5 mM MgCl2, on ice; ITC: 10 mM HEPES pH 8.0, 75 mM NaCl, 2.5 mM MgCl2, 1 mM b-mercaptoethanol, 20 C; NMR:; details: protein: recombinant; tags: N-terminal His6 removed by TEV; hairpin

B1: SL7 23mer duplex (dsRNA)
RNA 1: UUAAAAGACGUGUAAAAUGUUGC
RNA 2: GUAACGUUUUACGCGCCUUUUCC
B1: binds (MLE dsRBD1,2 [1]; 23 + 23 nt, terminal U-C mismatches, internal A-C mismatch).

B2: SL7 18mer duplex (dsRNA)
RNA 1: AGACGUGUAAAAUGUUGC
RNA 2: GUAACGUUUUACGCGCCU
B2 was tested, and the Kd (MLE dsRBD2 [2]) was 2.71 ± 0.19 µM, the Kd (MLE dsRBD1,2 [3]) was 3.18 ± 0.48 µM and the Kd (MLE dsRBD1) was about 470 µM. The Kd (MLE dsRBD2 [4]) was about 33 µM, the binding result (MLE dsRBD1 K53+54E) was “no binding” and the binding result (MLE dsRBD1 K53E) was “no binding”. B2: no binding (MLE dsRBD1 K54E).

Binder GUGUAAAAUGUUGCAAUAUAUAGUAACGUUUUACGC (structured_RNA) [SL7 14merLoop] has a Kd (MLE dsRBD2 [5]) of 5.92 ± 1.31 µM, a Kd (MLE dsRBD1,2 [6]) of 4.66 ± 0.71 µM and a Kd (MLE dsRBD1,2 [7]) of 6.8 µM. The Kd (MLE dsRBD2 [8]) was about 22 µM and the binding result [9] was “binds”.

B3: UR23mer (dsRNA)
RNA 1: UAAAGUGCUUAUAGUGCAGGUAG
RNA 2: ACCUGCACUAUAAGCACUUUAAG
B3: binds (MLE dsRBD1,2 [1]; 3' overhangs 2 nt on both ends).
